Molecular target: RBX1 (human, UniProt P62877 1-108)
Experiment: cryo-EM structure

B1: DDB1- and CUL4-associated factor 1 (DCAF1), full length, wild type (natural protein)
chain: not shown
- binding result: binds
